Broadly, the Kd is the free concentration of one partner at which half of the binding sites on the other are occupied at equilibrium, for simple one-to-one binding. Low values mean tighter binding, high ones weaker binding.

Like-named read-outs stand apart in the source and are kept apart here.

Common to all, as to assay: other fluorescence titration
In assay [1] the target is T1, Full-length, wild-type calmodulin (paramecium sequence) (paramecium, UniProt P07463 1-149).
The target of assay [2] is T2, N-domain fragment of calmodulin (CaMN, residues 1-75) (paramecium, UniProt P07463 2-76).
Assay [3] concerns the target T3, C-domain fragment of calmodulin (CaMC, residues 76-148) (paramecium, UniProt P07463 77-149).
For assay [4], the target named is T1, Full-length, wild-type calmodulin …. The source holds these as a separate data set.
Assay [5] addresses T2, N-domain fragment of calmodulin (CaMN, …). This is another data set of the same source.
The target of assay [6] is T3, C-domain fragment of calmodulin (CaMC, …). The source holds these as a separate data set.

Take KRKQEEVSAIVIQRAYRRYLLKQKVKK (domain or fragment) [NaV1.2 IQ biosensor (rat NaV1.2 residues 1901-1927 flanked by YFP and CFP)]: the Kd in assay [1] is 85 nM; in assay [2], above 100000 nM; in assay [3] it was 386 nM; in assay [4], 3.2 nM; in assay [5], above 100000 nM; in assay [6] it was 11.6 nM.
